Data on 41 sequences can be found in the nanobody polyreactivity screen of Harvey et al. (2022).

The nature of the data set: yeast display, Sf9 membrane polyspecificity reagent, FACS + sequencing; frameworks hold sequencing errors. A digest of the protocol:
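Sorting gates, low and high (top ~1%), were placed on anti-HA fluorescence to track expression and on streptavidin fluorescence to track reagent binding. A clone's polyreactivity label is taken from the gate it came out of. The reagent was 10% biotinylated, detergent-solubilized Sf9 membrane, applied for 1 hour at 4 °C to galactose-induced yeast display cells.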
For the sequence “QVQLVESGGGLVQAGGSLRLSCASSGFILDYNAMGWYRQAPGKERQLVATITGRGDRTYYADSVKGRFTISRDNAKNTVYLQMNSLKPEDTAVYYCAAGFDGSSHPGFDSWGQGTQVTVSS”, the “polyreactivity (PSR sort gate)” value is listed as “low polyreactivity”.

“QVQLVESGGGLVQAGGSLRLSCASSGFTFDPYAMGWYRQAPGKERELVAAISWSGGSTYYADSVKGRFTISRDNAKNTVYLQMNSLKPEDTAVYYCAAEWYNSAYYEYDYWGQGTQVTVSS”: the “polyreactivity (PSR sort gate)” value is “high polyreactivity”. Consider “QVQLVESGGGLVQAGGSLRLSCASSGFTFSDYAMAWYRQAPGKERELVADISTSGGSTYYADSVKGRFTISRDNAKNTVYLQMNSLKPEDTAVYYCAVRPGYYWGYWPRFGYWGQGTQVTVSS”, for which the “polyreactivity (PSR sort gate)” value was “low polyreactivity”. For “QVQLVESGGGLVQAGGSLRLSCASSGFTFWYTMGWYRQAPGKEREFVAAITSGGGRTYYADSVKGRFTISRDNAKNTVYLQMNSLKPEETAVYYSAADSYYSWYDYWVQGTQVTVSS”, the “polyreactivity (PSR sort gate)” value is reported as “high polyreactivity”. For the sequence “QVQLVESGGGLVQAGGSLRLSCASSGHIFIGNAMGWYRQAPGKERELVAAISRGGGRTYYADSVKGRFTISRDNAKNTVFLQMNILKPEDTAVYYCATVGQGPTKTPAGRYDYWGQGTQVTVSS”, the “polyreactivity (PSR sort gate)” value is reported as “high polyreactivity”. Next, “QVQLVESGGGLVQAGGSLRLSCASSGIIFGGNAMGWYRQAPGKERELVATISNGGSTKYADSVKGRFTISRDNAKNTVYLQMNSLKPEDTAVYYCAAQPRVGSYVRSSRGRYNHWGQGTQVTVSS”: “high polyreactivity”; “QVQLVESGGGLVQAGGSLRLSCASSGITFGYYAMGWYRQAPGKESELGAARSGSGGSTYYADSVKGRFTISRDNAKNTVSLQMNSLKPEDTAVYDCAAEGPSNTLYWFSWEDYWGQGTQVTVSS”: “high polyreactivity”; “QVQLVESGGGLVQAGGSLRLSCASSGITFNLNDMGWYRQAPGKERELVAAITSGGNTSYADSVKGRFTISRDNAKNTVYLQMNSLKPEDTAVYYCATEDFRTDTGMYYWGQGTQVTVSS”: “low polyreactivity”. For the sequence “QVQLVESGGGLVQAGGSLRLSCASSGITFVVNAMVWYRQAPGKEREFVAAIDVRGGTTYYADSVKGRFTISRDNAKNSVYLQMNSLKPEDTAVYYCAASSTSGYDWGQGTQVTVSS”, the “polyreactivity (PSR sort gate)” value is on record as “low polyreactivity”. The entry for “QVQLVESGGGLVQAGGSLRLSCASSGLIFPFYDMGWYRQAPGKERELVAAMTRSGDSTYYADSVKGRFTISRDNAKNTVYLQMNSLKPEDTAVSYCAAQPGTASYAGDGDSWGQGTQVTVSS” is “low polyreactivity”; for “QVQLVESGGGLVQAGGSLRLSCASSGLIYHRNAMGWYRQAPGKERELVAAITKTGGGTYYADSVKGRFTISRDNAKNTVYLQMNSLKPEDTAVYYCAADTQRTFYYWGQGTQVTVSS” it is “low polyreactivity”; for “QVQLVESGGGLVQAGGSLRLSCASSGNIFVAYAMGWYRQAPGKERELVAAITSGGRTYADSVKGRFTISRDNAKNTVYLQMNSLKPEDTAVYYCNADPYYVYLGYYDRYYSGYGYWGQGTQVTVSS” it is “low polyreactivity”. With “QVQLVESGGGLVQAGGSLRLSCASSGNTFKTNAMGWYRQAPGKERELVAAISSSGSTYYADSVKGRFTISRDNAKNTVYLQMNSLKPEDTAVYYCAVTYRRFYYWGQGTQVTVSS”, the “polyreactivity (PSR sort gate)” value was “high polyreactivity”. The entry for “QVQLVESGGGLVQAGGSLRLSCASSGRIFFMYAMGWYIQAPGKERELVAAINKSGGSTYADSVKGRFTISRDNANNTVYLQMNSLKPEDTAVYYCATENTDSGESVYIVKYGSDYWGQGTQVTVSS” is “low polyreactivity”.

Take “QVQLVESGGGLVQAGGSLRLSCASSGRIFGSYAMGWYRQAPGKERELVAGIRSVGSTNYADSVKGRFTISRDNAKNTVFLQINSLKPEDTAVYYCAARLWHLSYAGQGGDYWGQVTQVTVSS”: the “polyreactivity (PSR sort gate)” value was “low polyreactivity”. In the case of “QVQLVESGGGLVQAGGSLRLSCASSGRIFYSYAMGWYRQAPGKERELVAAITVSGGSTFYADSVKGRFTISRDNAKNTVYLQMNSLKPEDTAVYYCAAQSTTIEDGWYVEYNYWGQGTQVTVSS”, the “polyreactivity (PSR sort gate)” value was “high polyreactivity”.

Consider “QVQLVESGGGLVQAGGSLRLSCASSGRIIINYDMGWYRQAPGKEIELVAAITWSTGSTYADSVKGRFTISRDNAKNTVYLQMNSLKPEDTAVYYCAAPWGQTDDRHQGGDYWGQGTQVTVSS”, for which the “polyreactivity (PSR sort gate)” value is “low polyreactivity”. In the case of “QVQLVESGGGLVQAGGSLRLSCASSGRTFLGYAMGWYRQAPGKERELVAAISYSGSSTYYADSVKGRFTISRDNAKNTVYLQMNSLKPEDTAVYYCAAQFYFLFDYWGQGTQVTVSS”, the “polyreactivity (PSR sort gate)” value is “low polyreactivity”.

As to “QVQLVESGGGLVQAGGSLRLSCASSGRTFTPYAMGWSTQAPGKERELVAAISRRAGTTYYADSVKGRFTISRDKAKNYGFLQMNRLKPEETEVYYCAALTESSSYGYWGQGTQVNVSS”, the “polyreactivity (PSR sort gate)” value is “low polyreactivity”. For “QVQLVESGGGLVQAGGSLRLSCASSGRTFTYYTMGWYRQAPGKERELVAAISSSGGSTYYADSVKGRFTISRDNAKNTVYLQMNSLKPEDTAVYYCAAVRGRLLPPYGYWGQGTQVTVSS”, the “polyreactivity (PSR sort gate)” value is reported as “high polyreactivity”. As to “QVQLVESGGGLVQAGGSLRLSCASSGRTFVSNAKGWYRQAPGKERELVAVITGIGGNTYYADSVKGRFTISRDNAKNSDYLQMNSLKPEDTAVYYCAADISLVSYYYWGQGTQVTVSS”, the “polyreactivity (PSR sort gate)” value is recorded as “low polyreactivity”. For “QVQLVESGGGLVQAGGSLRLSCASSGRTSLGYVMGWYRQAPGKERELVAAITKSGGSTYYADSVKGRFTISRDNAKNTVYLQMNSQKPEDTAVYYCAARNPWSARYEYWGQGTQVTVSS”, the “polyreactivity (PSR sort gate)” value was “high polyreactivity”.

For “QVQLVESGGGLVQAGGSLRLSCASSGSIFALNAMGWYRQAPGKERELVAAISSSGGNTYYADSVKGRFTISRDNAKNTVYLQMNSLKPEDTAVYYCNRVAYRNDFDYWGQGTQVTVSS”, the “polyreactivity (PSR sort gate)” value was “low polyreactivity”. “QVQLVESGGGLVQAGGSLRLSCASSGSIFPAYAMGWYRQAPGKERELVAAISSRGGSTYYADSVKGRFTISRDNAKNTVYLQMNSLKPEDTAVYYCAASRWLYYYLFEYWGQGTQVTVSS”: the “polyreactivity (PSR sort gate)” value is recorded as “high polyreactivity”. “QVQLVESGGGLVQAGGSLRLSCASSGSIFSKYAMGWYRQAPGKERELVAAITLNGGSTYYADSVKGRFTISRDNAKNTVYLQMNSLKPEDTAVYYCAKSDRPWWGYYYSWGQGSQVTVSS”: the “polyreactivity (PSR sort gate)” value is “low polyreactivity”. The entry for “QVQLVESGGGLVQAGGSLRLSCASSGSIFVANAMGWYRQAPGKERELVAAISVRGGRTYYADSVKGRFTISRDNAKNTVYLQMNSLKPEDTAVYYCARVLRSDVADYDYWGQGTQVSVSS” is “high polyreactivity”; for “QVQLVESGGGLVQAGGSLRLSCASSGSILWLNAMGWYRQAPGKERDLVAAITSRGGSTYYADSVKGRYTITRDNANNTVYLQMNSLKPEDTAVYYCATRSSRGSGSRFDYWGQGTQVTVSS” it is “high polyreactivity”. Turning to “QVQLVESGGGLVQAGGSLRLSCASSGSTFAIYAMGWYRQAPGKESELVAAITRSGGNAYYADSVKGRFTISRDNAKNTVYLQMNSLKPEDTAVYYCNAETYYWSAYAQYDYWGQGTQVTVSS”, the “polyreactivity (PSR sort gate)” value is on record as “high polyreactivity”. Turning to “QVQLVESGGGLVQAGGSLRLSCASSGSTFDYYMGWYRHAPGKERELVAAITYSGGSTYYADSVKGRFTISRDNAKNTVYLQMKSLKPEDTAVYYCAKDRSTFDDFYSNYYWGQGTQVTVSS”, the “polyreactivity (PSR sort gate)” value is recorded as “low polyreactivity”. For the sequence “QVQLVESGGGLVQAGGSLRLSCASSGSTFLAYAMGWDRQAPGKERELVAAISSRGSRTYYADSLKGRCTISRDTAKNTVYLQMNSLKPEDTAVYYCAARYPSGYYYWGQGTQVTVSS”, the “polyreactivity (PSR sort gate)” value was “high polyreactivity”. Consider “QVQLVESGGGLVQAGGSLRLSCASSGSTFSANTKGWYRQAPGKERELVAAINSSGGSSTYYADSVKGRFTISRDNAKNTVYLQMKSLKPEDTAVYYCAAENSVPRGVLGGEFDYWGQGTQVTVSS”, for which the “polyreactivity (PSR sort gate)” value is “low polyreactivity”. Take “QVQLVESGGGLVQAGGSLRLSCASSGSTFYGNAMGWYRQAPGKERELVATISSGGSTDYADSVKGRFTISRDNAKNTVYLQMNSLKPEDTAVYYCATDNYLGYYYKDGVLDDYWGQGTQVTVSS”: the “polyreactivity (PSR sort gate)” value is given as “low polyreactivity”. The entry for “QVQLVESGGGLVQAGGSLRLSCASSGSTFYGNAMGWYRQEPGKERELVASISSGGTNYADSVKGRFTISRDNAKNTVYLQMNSLKPEDTAVYYLNADYIDTFRGFDYWGQGTQVTVSS” is “low polyreactivity”; for “QVQLVESGGGLVQAGGSLRLSCASSGSTIRSYAMGWYRQAPGKERELVAVISSGDSTYYADSVKGRFTISRDNAKNTVYLQMNSLKPDDTAVYYCAADSYVLGRWYGYWGQGTQVTVSS” it is “low polyreactivity”. Regarding “QVQLVESGGGLVQAGGSLRLSCASSGSTYYVYGMVWYRQAPGKERELVAAISWSGGDTYYADSVKGRFTISRDNAKKTVYFQMNPLKPEDTGVYYCAAVYNYPVVCEYDYWGQGTQVTVSS”, the “polyreactivity (PSR sort gate)” value is given as “high polyreactivity”. Turning to “QVQLVESGGGLVQAGGSLRLSCASSRNIFYLYAMGWYRQAPGKEREFSTSYADSEKGRFTISRDNAKNTVYLQMNSLKPEDTAVYYCAAYNSRGPYYYLFDYWGQGSQVTVSS”, the “polyreactivity (PSR sort gate)” value was “low polyreactivity”.

Take “QVQLVESGGGLVQAGGSLRLSCASYGSIFSSYFMGWYRQAPGKERELVAAISSGGRTYYADSVKGRFTISRDNAKNTVYIQMKSLKPEDTAVFYCNRVRYRQSAFDYWGQGTQVTVSS”: the “polyreactivity (PSR sort gate)” value is recorded as “high polyreactivity”. The entry for “QVQLVESGGGLVQAGGSLRLSCATSGGIFDSYAMVWYRQAPGKERELVASISWSGGSTYYADSVKGRFTISRDNEKNTVYLQMKSLKPEVTAVYYCAADRPYAGRFWKGYHSALYDYWGQGTQVTVSS” is “low polyreactivity”. With “QVQLVESGGGLVQAGGSLRLSCAYSGRTFYYNTMGWYRQAPGKEREFVATISRIGGSTYYADSVKGRFTISRDNAKNTVYFQMNSLKPEDTAVYYCAKGRSLNGLPPVVYWQLFYYWGQGTLVTVSS”, the “polyreactivity (PSR sort gate)” value is “high polyreactivity”. The entry for “QVQLVESGGGLVQAGGSLRLSCDASASILRENAMGWYRQAPGKERELVAVITRGGNTYYADSVKGRFTISRDNAKNTVYLQMNSLKPEDTAVYYCAAKRRERYGQTYGYWGQGTQVTVSS” is “high polyreactivity”. Take “QVQLVESGGGLVQAGGSLRLSCDASGFIFRRYTMGWNRQAPGKETELVPAITSSGGTNYADSVKGRFTISRDNAKNNVFVLRNSLKPEDTAVYYCAARRLTQQGYGGGYWGQGTQVTVAS”: the “polyreactivity (PSR sort gate)” value is “high polyreactivity”.
